Test results from PMC9482650, “Quantitative fragmentomics allow affinity mapping of interactomes” (Nature Communications, 2022).

T1: MPP6, Q9NZW5
T1 sequence (Q9NZW5 125-219, limits assumed, looked up): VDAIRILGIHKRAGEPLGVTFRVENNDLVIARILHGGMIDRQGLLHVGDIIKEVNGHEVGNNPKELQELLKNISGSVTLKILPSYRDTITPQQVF

T2: NHERF3_3, Q5T2W1
T2 sequence (Q5T2W1 238-333, limits assumed, looked up): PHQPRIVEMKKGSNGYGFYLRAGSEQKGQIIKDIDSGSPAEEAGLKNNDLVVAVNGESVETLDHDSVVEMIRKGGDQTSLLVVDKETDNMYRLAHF

T3: SNTG2, Q9NY99
T3 sequence (Q9NY99 68-166, limits assumed, looked up): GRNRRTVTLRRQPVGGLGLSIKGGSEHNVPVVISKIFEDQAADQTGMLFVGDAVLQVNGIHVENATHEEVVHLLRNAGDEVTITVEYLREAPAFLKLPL

T4: TIAM2, Q8IVF5
T4 sequence (Q8IVF5 885-986, limits assumed, looked up): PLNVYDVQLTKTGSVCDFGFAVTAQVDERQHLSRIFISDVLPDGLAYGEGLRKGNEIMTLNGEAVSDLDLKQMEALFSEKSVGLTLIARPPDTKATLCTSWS

T5: LRRC7, Q96NW7
T5 sequence (Q96NW7 1440-1537, limits assumed, looked up): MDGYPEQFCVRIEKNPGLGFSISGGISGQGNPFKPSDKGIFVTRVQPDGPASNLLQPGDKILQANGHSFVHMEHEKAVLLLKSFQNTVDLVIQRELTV

T6: NHERF3_1, Q5T2W1
T6 sequence (Q5T2W1 4-100, limits assumed, looked up): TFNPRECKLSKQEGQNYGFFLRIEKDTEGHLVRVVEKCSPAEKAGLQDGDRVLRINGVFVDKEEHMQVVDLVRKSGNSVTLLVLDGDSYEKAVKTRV

T7: PARD3B_1, Q8TEW8
T7 sequence (Q8TEW8 196-299, limits assumed, looked up): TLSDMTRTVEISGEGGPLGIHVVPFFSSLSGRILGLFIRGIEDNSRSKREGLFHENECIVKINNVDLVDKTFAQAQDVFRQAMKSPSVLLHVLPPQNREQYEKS

T8: SNTG1, Q9NSN8
T8 sequence (Q9NSN8 52-150, limits assumed, looked up): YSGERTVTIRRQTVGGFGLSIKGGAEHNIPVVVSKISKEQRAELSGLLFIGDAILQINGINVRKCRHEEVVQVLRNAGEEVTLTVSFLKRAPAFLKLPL

B1: TRAF7, Q6Q0C0 (peptide)
chain: VDSTVKVWTC
B2: BPIFA2, Q96DR5 (peptide)
chain: QHKTQLQTLI

Molecular target: SCRIB_3, Q14160
Sequence (Q14160 999-1103): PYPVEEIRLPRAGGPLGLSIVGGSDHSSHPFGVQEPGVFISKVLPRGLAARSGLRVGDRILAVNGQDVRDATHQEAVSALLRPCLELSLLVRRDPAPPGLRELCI
Assay: holdup assay
Parameters: key: below the threshold = too weak to quantify, mostly under pKd 3.1 to 4
Conditions: plain residues with an end cap or a label only (N-terminal biotin on a linker: ado-ado)

| pKd | Binder |
| --- | --- |
| below the threshold | B1 |
| 4.2 | B2 |

Molecular target: IL16_4, Q14005
Sequence (Q14005 1229-1329): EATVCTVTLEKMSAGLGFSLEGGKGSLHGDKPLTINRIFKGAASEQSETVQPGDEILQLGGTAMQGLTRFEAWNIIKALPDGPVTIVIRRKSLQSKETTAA
Assay: holdup assay
Parameters: key: below the threshold = too weak to quantify, mostly under pKd 3.1 to 4
Conditions: plain residues with an end cap or a label only (N-terminal biotin on a linker: ado-ado)

| pKd | Binder |
| --- | --- |
| below the threshold | B1 |
| below the threshold | B2 |

Molecular target: T1, MPP6, Q9NZW5
Assay: holdup assay
Parameters: key: below the threshold = too weak to quantify, mostly under pKd 3.1 to 4
Conditions: plain residues with an end cap or a label only (N-terminal biotin on a linker: ado-ado)

| pKd | Binder |
| --- | --- |
| below the threshold | B1 |
| below the threshold | B2 |

Molecular target: DLG4_2, P78352
Sequence (P78352 155-259): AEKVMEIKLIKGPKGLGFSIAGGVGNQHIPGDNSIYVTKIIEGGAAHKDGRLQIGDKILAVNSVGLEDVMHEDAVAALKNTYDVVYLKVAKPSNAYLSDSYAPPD
Assay: holdup assay
Parameters: key: below the threshold = too weak to quantify, mostly under pKd 3.1 to 4
Conditions: plain residues with an end cap or a label only (N-terminal biotin on a linker: ado-ado)

| pKd | Binder |
| --- | --- |
| 3.7 | B1 |
| 4.56 | B2 |

Molecular target: LDB3, O75112
Sequence (O75112 1-94): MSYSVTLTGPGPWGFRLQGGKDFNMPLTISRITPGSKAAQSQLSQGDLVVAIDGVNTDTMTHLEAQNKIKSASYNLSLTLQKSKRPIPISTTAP
Assay: holdup assay
Parameters: key: below the threshold = too weak to quantify, mostly under pKd 3.1 to 4
Conditions: plain residues with an end cap or a label only (N-terminal biotin on a linker: ado-ado)

| pKd | Binder |
| --- | --- |
| below the threshold | B1 |
| below the threshold | B2 |

Molecular target: T2, NHERF3_3, Q5T2W1
Assay: holdup assay
Parameters: key: below the threshold = too weak to quantify, mostly under pKd 3.1 to 4
Conditions: plain residues with an end cap or a label only (N-terminal biotin on a linker: ado-ado)

| pKd | Binder |
| --- | --- |
| 3.48 | B1 |
| below the threshold | B2 |

Molecular target: TJP1_3, Q07157
Sequence (Q07157 416-512): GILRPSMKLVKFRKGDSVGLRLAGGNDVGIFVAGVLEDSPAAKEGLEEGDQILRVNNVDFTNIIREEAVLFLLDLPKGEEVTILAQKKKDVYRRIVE
Assay: holdup assay
Parameters: key: below the threshold = too weak to quantify, mostly under pKd 3.1 to 4
Conditions: plain residues with an end cap or a label only (N-terminal biotin on a linker: ado-ado)

| pKd | Binder |
| --- | --- |
| below the threshold | B1 |
| below the threshold | B2 |

Molecular target: T3, SNTG2, Q9NY99
Assay: holdup assay
Parameters: key: below the threshold = too weak to quantify, mostly under pKd 3.1 to 4
Conditions: plain residues with an end cap or a label only (N-terminal biotin on a linker: ado-ado)

| pKd | Binder |
| --- | --- |
| 3.49 | B1 |
| 3.63 | B2 |

Molecular target: T4, TIAM2, Q8IVF5
Assay: holdup assay
Parameters: key: below the threshold = too weak to quantify, mostly under pKd 3.1 to 4
Conditions: plain residues with an end cap or a label only (N-terminal biotin on a linker: ado-ado)

| pKd | Binder |
| --- | --- |
| 4.22 | B1 |
| below the threshold | B2 |

Molecular target: Inadl_1, Q8NI35
Sequence (Q8NI35 113-229): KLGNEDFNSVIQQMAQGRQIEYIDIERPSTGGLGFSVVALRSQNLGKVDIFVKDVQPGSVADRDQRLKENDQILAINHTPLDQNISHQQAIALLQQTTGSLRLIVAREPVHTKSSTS
Assay: holdup assay
Parameters: key: below the threshold = too weak to quantify, mostly under pKd 3.1 to 4
Conditions: plain residues with an end cap or a label only (N-terminal biotin on a linker: ado-ado)

| pKd | Binder |
| --- | --- |
| 3.67 | B1 |
| below the threshold | B2 |

Molecular target: T5, LRRC7, Q96NW7
Assay: holdup assay
Parameters: key: below the threshold = too weak to quantify, mostly under pKd 3.1 to 4
Conditions: plain residues with an end cap or a label only (N-terminal biotin on a linker: ado-ado)

| pKd | Binder |
| --- | --- |
| below the threshold | B1 |
| below the threshold | B2 |

Molecular target: SCRIB_1, Q14160
Sequence (Q14160 718-814): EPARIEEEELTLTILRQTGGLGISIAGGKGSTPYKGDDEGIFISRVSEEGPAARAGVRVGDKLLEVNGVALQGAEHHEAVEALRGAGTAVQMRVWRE
Assay: holdup assay
Parameters: key: below the threshold = too weak to quantify, mostly under pKd 3.1 to 4
Conditions: plain residues with an end cap or a label only (N-terminal biotin on a linker: ado-ado)

| pKd | Binder |
| --- | --- |
| 3.66 | B1 |
| 4.02 | B2 |

Molecular target: GRASP, Q7Z6J2
Sequence (Q7Z6J2 96-193): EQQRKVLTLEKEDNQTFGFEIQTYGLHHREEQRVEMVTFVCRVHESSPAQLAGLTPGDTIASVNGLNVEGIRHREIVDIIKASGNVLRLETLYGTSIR
Assay: holdup assay
Parameters: key: below the threshold = too weak to quantify, mostly under pKd 3.1 to 4
Conditions: plain residues with an end cap or a label only (N-terminal biotin on a linker: ado-ado)

| pKd | Binder |
| --- | --- |
| 3.85 | B1 |
| 4.04 | B2 |

Molecular target: DLG1_2, Q12959
Sequence (Q12959 314-412): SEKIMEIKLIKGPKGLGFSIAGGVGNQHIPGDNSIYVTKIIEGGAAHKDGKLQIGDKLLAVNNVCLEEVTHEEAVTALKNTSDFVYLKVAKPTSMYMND
Assay: holdup assay
Parameters: key: below the threshold = too weak to quantify, mostly under pKd 3.1 to 4
Conditions: plain residues with an end cap or a label only (N-terminal biotin on a linker: ado-ado)

| pKd | Binder |
| --- | --- |
| 3.84 | B1 |
| 4.88 | B2 |

Molecular target: T6, NHERF3_1, Q5T2W1
Assay: holdup assay
Parameters: key: below the threshold = too weak to quantify, mostly under pKd 3.1 to 4
Conditions: plain residues with an end cap or a label only (N-terminal biotin on a linker: ado-ado)

| pKd | Binder |
| --- | --- |
| below the threshold | B1 |
| 5.29 | B2 |

Molecular target: IL16_1, Q14005
Sequence (Q14005 210-306): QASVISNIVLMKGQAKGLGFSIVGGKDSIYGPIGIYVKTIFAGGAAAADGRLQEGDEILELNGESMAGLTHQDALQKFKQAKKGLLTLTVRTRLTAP
Assay: holdup assay
Parameters: key: below the threshold = too weak to quantify, mostly under pKd 3.1 to 4
Conditions: plain residues with an end cap or a label only (N-terminal biotin on a linker: ado-ado)

| pKd | Binder |
| --- | --- |
| below the threshold | B1 |
| below the threshold | B2 |

Molecular target: PARD3_3, Q8TEW0
Sequence (Q8TEW0 582-685): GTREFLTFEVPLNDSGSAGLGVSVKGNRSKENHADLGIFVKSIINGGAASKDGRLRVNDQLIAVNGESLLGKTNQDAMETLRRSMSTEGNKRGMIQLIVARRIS
Assay: holdup assay
Parameters: key: below the threshold = too weak to quantify, mostly under pKd 3.1 to 4
Conditions: plain residues with an end cap or a label only (N-terminal biotin on a linker: ado-ado)

| pKd | Binder |
| --- | --- |
| 4.66 | B1 |
| 3.83 | B2 |

Molecular target: NHERF4_4, Q86UT5
Sequence (Q86UT5 464-550): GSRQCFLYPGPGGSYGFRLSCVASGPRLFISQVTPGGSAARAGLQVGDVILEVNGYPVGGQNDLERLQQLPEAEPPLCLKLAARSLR
Assay: holdup assay
Parameters: key: below the threshold = too weak to quantify, mostly under pKd 3.1 to 4
Conditions: plain residues with an end cap or a label only (N-terminal biotin on a linker: ado-ado)

| pKd | Binder |
| --- | --- |
| 3.62 | B1 |
| below the threshold | B2 |

Molecular target: T7, PARD3B_1, Q8TEW8
Assay: holdup assay
Parameters: key: below the threshold = too weak to quantify, mostly under pKd 3.1 to 4
Conditions: plain residues with an end cap or a label only (N-terminal biotin on a linker: ado-ado)

| pKd | Binder |
| --- | --- |
| 4.42 | B1 |
| 4.22 | B2 |

Molecular target: Inadl_3, Q8NI35
Sequence (Q8NI35 359-469): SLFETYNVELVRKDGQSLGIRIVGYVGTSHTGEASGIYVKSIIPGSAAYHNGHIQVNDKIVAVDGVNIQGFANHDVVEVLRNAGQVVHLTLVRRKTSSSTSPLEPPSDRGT
Assay: holdup assay
Parameters: key: below the threshold = too weak to quantify, mostly under pKd 3.1 to 4
Conditions: plain residues with an end cap or a label only (N-terminal biotin on a linker: ado-ado)

| pKd | Binder |
| --- | --- |
| 4.4 | B1 |
| 3.93 | B2 |

Molecular target: DLG4_3, P78352
Sequence (P78352 306-403): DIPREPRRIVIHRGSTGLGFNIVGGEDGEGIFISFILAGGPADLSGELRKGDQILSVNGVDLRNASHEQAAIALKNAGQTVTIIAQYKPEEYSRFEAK
Assay: holdup assay
Parameters: key: below the threshold = too weak to quantify, mostly under pKd 3.1 to 4
Conditions: plain residues with an end cap or a label only (N-terminal biotin on a linker: ado-ado)

| pKd | Binder |
| --- | --- |
| 3.56 | B1 |
| 3.72 | B2 |

Molecular target: DLG1_3, Q12959
Sequence (Q12959 457-571): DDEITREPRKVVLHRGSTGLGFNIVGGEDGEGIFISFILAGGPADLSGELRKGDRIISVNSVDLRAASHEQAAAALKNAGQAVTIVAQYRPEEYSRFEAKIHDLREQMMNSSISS
Assay: holdup assay
Parameters: key: below the threshold = too weak to quantify, mostly under pKd 3.1 to 4
Conditions: plain residues with an end cap or a label only (N-terminal biotin on a linker: ado-ado)

| pKd | Binder |
| --- | --- |
| below the threshold | B1 |
| 3.68 | B2 |

Molecular target: ARHGEF12, Q9NZN5-2
Sequence (Q9NZN5 other isoform, or with tags, fused parts or gaps): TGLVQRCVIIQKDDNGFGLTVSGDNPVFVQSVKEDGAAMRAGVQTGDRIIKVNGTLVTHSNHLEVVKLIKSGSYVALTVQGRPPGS
Assay: holdup assay
Parameters: key: below the threshold = too weak to quantify, mostly under pKd 3.1 to 4
Conditions: plain residues with an end cap or a label only (N-terminal biotin on a linker: ado-ado)

| pKd | Binder |
| --- | --- |
| 3.5 | B1 |
| 4.33 | B2 |

Molecular target: MAST2, Q6P0Q8
Sequence (Q6P0Q8 1099-1202): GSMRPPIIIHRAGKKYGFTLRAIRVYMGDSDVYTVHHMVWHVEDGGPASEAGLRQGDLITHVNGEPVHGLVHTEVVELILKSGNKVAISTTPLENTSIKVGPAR
Assay: holdup assay
Parameters: key: below the threshold = too weak to quantify, mostly under pKd 3.1 to 4
Conditions: plain residues with an end cap or a label only (N-terminal biotin on a linker: ado-ado)

| pKd | Binder |
| --- | --- |
| 3.74 | B1 |
| 4.92 | B2 |

Molecular target: LIMK2, P53671
Sequence (P53671 143-248): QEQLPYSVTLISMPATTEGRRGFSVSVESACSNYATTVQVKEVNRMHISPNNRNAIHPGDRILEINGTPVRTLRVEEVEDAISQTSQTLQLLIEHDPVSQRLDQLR
Assay: holdup assay
Parameters: key: below the threshold = too weak to quantify, mostly under pKd 3.1 to 4
Conditions: plain residues with an end cap or a label only (N-terminal biotin on a linker: ado-ado)

| pKd | Binder |
| --- | --- |
| below the threshold | B1 |
| below the threshold | B2 |

Molecular target: PTPN3, P26045
Sequence (P26045 505-587): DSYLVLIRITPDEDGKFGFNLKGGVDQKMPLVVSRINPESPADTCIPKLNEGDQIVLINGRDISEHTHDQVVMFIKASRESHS
Assay: holdup assay
Parameters: key: below the threshold = too weak to quantify, mostly under pKd 3.1 to 4
Conditions: plain residues with an end cap or a label only (N-terminal biotin on a linker: ado-ado)

| pKd | Binder |
| --- | --- |
| 4.13 | B1 |
| 3.99 | B2 |

Molecular target: GRIP2_6, Q9C0E4
Sequence (Q9C0E4 648-740): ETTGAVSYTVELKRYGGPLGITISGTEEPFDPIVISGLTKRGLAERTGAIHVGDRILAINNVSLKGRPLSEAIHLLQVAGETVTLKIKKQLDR
Assay: holdup assay
Parameters: key: below the threshold = too weak to quantify, mostly under pKd 3.1 to 4
Conditions: plain residues with an end cap or a label only (N-terminal biotin on a linker: ado-ado)

| pKd | Binder |
| --- | --- |
| 4.94 | B1 |
| below the threshold | B2 |

Molecular target: LAP2, Q96RT1
Sequence (Q96RT1 other isoform, or with tags, fused parts or gaps): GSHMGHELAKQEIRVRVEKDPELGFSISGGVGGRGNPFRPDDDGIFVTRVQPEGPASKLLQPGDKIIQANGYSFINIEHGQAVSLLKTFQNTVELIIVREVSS
Assay: holdup assay
Parameters: key: below the threshold = too weak to quantify, mostly under pKd 3.1 to 4
Conditions: plain residues with an end cap or a label only (N-terminal biotin on a linker: ado-ado)

| pKd | Binder |
| --- | --- |
| below the threshold | B1 |
| below the threshold | B2 |

Molecular target: T8, SNTG1, Q9NSN8
Assay: holdup assay
Parameters: key: below the threshold = too weak to quantify, mostly under pKd 3.1 to 4
Conditions: plain residues with an end cap or a label only (N-terminal biotin on a linker: ado-ado)

| pKd | Binder |
| --- | --- |
| 3.61 | B1 |
| 3.47 | B2 |

Molecular target: PICK1, Q9NRD5
Sequence (Q9NRD5 17-115): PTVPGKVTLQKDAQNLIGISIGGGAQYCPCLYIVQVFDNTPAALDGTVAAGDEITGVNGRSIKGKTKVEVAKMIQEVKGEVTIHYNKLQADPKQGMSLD
Assay: holdup assay
Parameters: key: below the threshold = too weak to quantify, mostly under pKd 3.1 to 4
Conditions: plain residues with an end cap or a label only (N-terminal biotin on a linker: ado-ado)

| pKd | Binder |
| --- | --- |
| below the threshold | B1 |
| below the threshold | B2 |
